Test results from US20080274976A1 (UNIVERSITY OF UTAH RESEARCH FOUNDATION, published 2008).
Where “and” joins values, the source holds several entries; their conditions need not be identical. Equal values may be shown once.

Assays:
κM-conotoxin RIIIK [1] = target: κM-conotoxin RIIIK (Conus radiatus)
κM-conotoxin RIIIK [2] = target: κM-conotoxin RIIIK (Conus radiatus); assay: voltage clamp of channels expressed in Xenopus oocytes

Binder | Kd (κM-conotoxin RIIIK [1]) | binding result (κM-conotoxin RIIIK [2])
Shaker-Δ6-46 K+ channel (other) MAAVALREQQLQRNSLDGYGSLPKLSSQDEEGGAGHGFGGGPQHFEPIPHDHDFCERVVINVSGLRFETQLRTLNQFPDTLLGDPARRLRYFDPLRNEYFFDRSRPSFDAILYYYQSGGRLRRPVNVPLDVFSEEIKFYELGDQAINKFREDEGFIKEEERPLPDNEKQRKVWLLFEYPESSQAARVVAIISVFVILLSIVIFCLETLPEFKHYKVFNTTTNGTKIEEDEVPDITDPFFLIETLCIIWFTFELTVRFLACPNKLNFCRDVMNVIDIIAIIPYFITLATVVAEEEDTLNLPKAPVSPQDKSSNQAMSLAILRVIRLVRVFRIFKLSRHSKGLQILGRTLKASMRELGLLIFFLFIGVVLFSSAVYFAEAGSENSFFKSIPDAFWWAVVTMTTVGYGDMTPVGVWGKIVGSLCAIAGVLTIALPVPVIVSNFNYFYHRETDQEEMQSQNFNHVTSCPYLPGTLGQHMKKSSLSESSSDMMDLDDGVESTPGLTETHPGRSAVAPFLGAQQQQQQPVASSLSMSIDKQLQHPLQQLTQTQLYQQQQQQQQQQQNGFKQQQQQTQQQLQQQQSHTINASAAAATSGSGSSGLTMRHNNALAVSIETDV | 3.33 µM and 1.26 µM | –
Shaker K+ channel, wild type (other, whole, on cells) MAAVAGLYGLGEDRQHRKKQQQQQQHQKEQLEQKEEQKKIAERKLQLREQQLQRNSLDGYGSLPKLSSQDEEGGAGHGFGGGPQHFEPIPHDHDFCERVVINVSGLRFETQLRTLNQFPDTLLGDPARRLRYFDPLRNEYFFDRSRPSFDAILYYYQSGGRLRRPVNVPLDVFSEEIKFYELGDQAINKFREDEGFIKEEERPLPDNEKQRKVWLLFEYPESSQAARVVAIISVFVILLSIVIFCLETLPEFKHYKVFNTTTNGTKIEEDEVPDITDPFFLIETLCIIWFTFELTVRFLACPNKLNFCRDVMNVIDIIAIIPYFITLATVVAEEEDTLNLPKAPVSPQDKSSNQAMSLAILRVIRLVRVFRIFKLSRHSKGLQILGRTLKASMRELGLLIFFLFIGVVLFSSAVYFAEAGSENSFFKSIPDAFWWAVVTMTTVGYGDMTPVGVWGKIVGSLCAIAGVLTIALPVPVIVSNFNYFYHRETDQEEMQSQNFNHVTSCPYLPGTLGQHMKKSSLSESSSDMMDLDDGVESTPGLTETHPGRSAVAPFLGAQQQQQQPVASSLSMSIDKQLQHPLQQLTQTQLYQQQQQQQQQQQNGFKQQQQQTQQQLQQQQSHTINASAAAATSGSGSSGLTMRHNNALAVSIETDV | – | binds
